Values of other authors as cited in PMC12609503.

What was measured:
[1] = molecular target: GnRH receptor (pituitary membrane) (Rattus norvegicus) (UniProt P30969); experiment: radioligand saturation binding
[2] = molecular target: GnRH receptor (LN-CaP cells) (Homo sapiens) (UniProt P30968); experiment: cell binding assay
UniProt P30968, sequence (P30968 whole entry): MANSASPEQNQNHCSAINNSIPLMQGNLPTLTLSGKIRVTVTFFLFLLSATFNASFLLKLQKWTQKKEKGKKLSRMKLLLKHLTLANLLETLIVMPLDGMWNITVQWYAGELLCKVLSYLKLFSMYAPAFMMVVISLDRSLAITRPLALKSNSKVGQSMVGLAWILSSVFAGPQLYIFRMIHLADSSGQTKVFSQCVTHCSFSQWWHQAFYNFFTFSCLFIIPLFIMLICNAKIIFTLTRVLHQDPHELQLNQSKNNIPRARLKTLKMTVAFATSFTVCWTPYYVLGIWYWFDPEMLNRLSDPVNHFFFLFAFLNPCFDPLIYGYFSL

UniProt P30969, sequence (P30969 whole entry): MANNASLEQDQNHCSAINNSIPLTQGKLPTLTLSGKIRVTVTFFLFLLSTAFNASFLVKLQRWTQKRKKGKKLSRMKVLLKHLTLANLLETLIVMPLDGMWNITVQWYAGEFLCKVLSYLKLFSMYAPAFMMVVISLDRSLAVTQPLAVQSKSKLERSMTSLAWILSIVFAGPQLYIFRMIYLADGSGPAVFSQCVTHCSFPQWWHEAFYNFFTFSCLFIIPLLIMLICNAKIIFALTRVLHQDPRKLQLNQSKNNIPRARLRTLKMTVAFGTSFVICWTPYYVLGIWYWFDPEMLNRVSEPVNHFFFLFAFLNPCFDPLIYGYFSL

For 125I-LHRH (from UniProt P01148), the Kd [1] is listed as 0.435 nM.

For “99mTc-HYNIC-GABA-DLys6-GnRH (from UniProt P01148)”, the Kd [2] is given as 89 nM.

In the case of “99mTc-HYNIC-Ahx-DLys6-GnRH (from UniProt P01148)”, the Kd [2] is listed as 42 nM.
